Data published in article doi:10.1101/2022.02.17.480855.

Target: FtsZ from Synechococcus 7942 (Synechococcus 7942)
Assay: MST

Microcystin-LR (peptide)
Kd: 1120 nM
